Measurements taken from patent publication US20240228572A1 (I2O THERAPEUTICS, published 2024).
Read-outs that look alike come from different tables or passages of the source. *1 amine or outer side, *2 acyl side, *3 side chain or, on linkers, in order; H or OH if unused. Where no end group is shown, it is not given here. Side-chain parts run from the residue outwards. [ ]: non-standard residue; d: D form. The star is where a group is joined. dpeg = —[CO(CH2)O(CH2)2O(CH2)NH]— spacer, O=C(COCCOCN[*:1])[*:2]; C20 diacid = O=C(O)CCCCCCCCCCCCCCCCCCC(=O)*; γGlu = O=C(O)[C@H](CCC(=O)[*:2])N[*:1]; Aib = CC(C)(N)C(=O)O

T1: hGIPR (human, UniProt P48546 22-466)
T1 sequence (looked up): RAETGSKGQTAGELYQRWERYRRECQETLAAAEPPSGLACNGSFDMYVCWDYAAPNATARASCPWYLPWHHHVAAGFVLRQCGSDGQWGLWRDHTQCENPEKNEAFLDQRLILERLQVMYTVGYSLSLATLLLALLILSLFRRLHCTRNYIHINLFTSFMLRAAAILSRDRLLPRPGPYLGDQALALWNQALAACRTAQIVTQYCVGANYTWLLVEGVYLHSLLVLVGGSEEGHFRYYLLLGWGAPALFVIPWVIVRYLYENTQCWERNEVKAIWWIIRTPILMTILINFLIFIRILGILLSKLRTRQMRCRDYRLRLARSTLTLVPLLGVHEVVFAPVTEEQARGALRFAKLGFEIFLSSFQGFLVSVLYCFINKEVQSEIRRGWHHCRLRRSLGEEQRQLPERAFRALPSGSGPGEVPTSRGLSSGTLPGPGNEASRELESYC


Key:
Assay in all cases: cell-based or functional assay
[1] = target: cynomolgus monkey Glucagon receptor (GCGR) (cynomolgus monkey)
[2] = target: T2, human Glucagon receptor (GCGR) (human, UniProt P47871 26-477)
hGIPR = target: T1, hGIPR
[3] = target: rat Glucagon receptor (GCGR) (rat, UniProt P30082 27-485)
Chain of rat Glucagon receptor (GCGR) (P30082 27-485): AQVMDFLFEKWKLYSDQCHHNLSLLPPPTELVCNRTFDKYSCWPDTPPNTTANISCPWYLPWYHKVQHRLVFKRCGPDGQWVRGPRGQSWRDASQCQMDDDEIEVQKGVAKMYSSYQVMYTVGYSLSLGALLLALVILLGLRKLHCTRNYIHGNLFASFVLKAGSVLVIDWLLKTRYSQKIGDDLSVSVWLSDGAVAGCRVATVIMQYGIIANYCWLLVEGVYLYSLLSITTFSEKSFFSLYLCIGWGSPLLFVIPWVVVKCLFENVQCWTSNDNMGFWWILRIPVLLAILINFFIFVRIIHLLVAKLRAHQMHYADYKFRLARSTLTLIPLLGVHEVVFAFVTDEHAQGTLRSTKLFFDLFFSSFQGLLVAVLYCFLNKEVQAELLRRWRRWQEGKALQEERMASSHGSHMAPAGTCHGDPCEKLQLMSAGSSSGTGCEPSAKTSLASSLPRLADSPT

[4] = target: T3, human GLP-1 receptor (GLP-1R) (human, UniProt P43220 24-463)
T3 sequence (P43220 24-463): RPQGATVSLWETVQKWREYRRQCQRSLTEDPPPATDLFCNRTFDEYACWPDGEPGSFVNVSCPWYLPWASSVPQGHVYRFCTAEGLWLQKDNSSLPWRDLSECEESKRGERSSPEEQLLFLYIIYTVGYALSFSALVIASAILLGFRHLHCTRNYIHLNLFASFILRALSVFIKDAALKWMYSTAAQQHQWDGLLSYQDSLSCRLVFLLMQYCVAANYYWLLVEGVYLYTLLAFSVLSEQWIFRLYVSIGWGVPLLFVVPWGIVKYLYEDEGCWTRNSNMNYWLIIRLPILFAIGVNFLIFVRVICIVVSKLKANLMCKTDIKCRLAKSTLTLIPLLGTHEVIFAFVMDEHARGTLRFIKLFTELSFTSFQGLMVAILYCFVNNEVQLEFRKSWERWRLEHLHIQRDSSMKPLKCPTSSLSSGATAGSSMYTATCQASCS

[5] = target: T2, human Glucagon receptor (GCGR); remark: listed apart in the source
[6] = target: T3, human GLP-1 receptor (GLP-1R); remark: listed apart in the source

Binder	pEC50, cAMP accumulation [1]	pEC50, cAMP accumulation [2]	pEC50, cAMP accumulation (hGIPR)	pEC50, cAMP accumulation [3]	pEC50, cAMP accumulation [4]	pEC50, cAMP accumulation [5]	pEC50, cAMP accumulation [6]
YSHGTFTSDYSKYLD[Aib]KYAQK([γGlu-γGlu-dpeg-C20 diacid])FV[Aib]WLEDEPSSGAPPPS-OH [Compound A6]	9.77 pEC50 (-log M)	12.2 pEC50 (-log M)	< 9 pEC50 (-log M)	10.3 pEC50 (-log M)	< 7 pEC50 (-log M)	12.2 pEC50 (-log M)	< 7 pEC50 (-log M)
YSHGTFTSDYSKYLDK([γGlu-γGlu-dpeg-C20 diacid])KYAQEF[Aib]QWLEDEPSSGAPPPS-OH [Compound A7]	–	–	–	–	–	10.7 pEC50 (-log M)	< 9 pEC50 (-log M)
